This note sets out measurements from article PMC10504260, “Identification of a c-type heme oxygenase and its function during acclimation of cyanobacteria to nitrogen fluctuations” (Communications Biology, 2023).

Assay [1] deals with Ssr1698 (c-type heme oxygenase, cHO), purified tag-less apo-Ssr1698 (Synechocystis sp. strain PCC 6803). The assay can be described thus: SEC; Superdex 200 Increase 10/300GL equilibrated with PBS buffer (pH 7.4); tag-less Ssr1698 after removal of GST by Factor Xa. A general note: In gel filtration, larger molecules generally elute earlier.
The target is the same in assay [2]. The assay can be described thus: native gel or EMSA; clear native-PAGE (CN-PAGE) of purified tag-less Ssr1698; 5-12.5% acrylamide gradient gel, 0.01% DM and 0.025% deoxycholate in the cathode buffer, 4 °C. (In general: Mobility shift assays separate free from complexed probe on a gel.)
Assay [3] concerns the target T1, Ssr1698 (cHO) (Synechocystis sp. PCC 6803, UniProt P73129).
T1 construct: full-length 96-residue protein; GST fusion from pGEX-5X-1 (BamHI/XhoI) in E. coli BL21(DE3) pLysS, GST tag removed by Factor Xa, SEC; dimer
T1 sequence (P73129 1-96): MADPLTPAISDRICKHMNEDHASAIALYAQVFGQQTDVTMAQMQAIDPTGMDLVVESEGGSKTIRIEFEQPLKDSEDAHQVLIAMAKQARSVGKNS
The assay can be described thus: HPLC and LC-MS of reaction product. It counts as biochemical. The note with it: substrate MP-11 (c-type heme), 10 mM ascorbic acid, 2 µM catalase, PBS pH 7.4, 2 h.

The target in assay [4] is T1, Ssr1698 (cHO). Description: UV-visible assay of MP-11 (c-type heme) degradation with added biliverdin IXα. To be noted: product inhibition; substrate MP-11, ascorbate, catalase, PBS pH 7.4. It counts as biochemical.

Turning to “Ssr1698 (c-type heme oxygenase, cHO), purified tag-less apo-Ssr1698 (enzyme)”, the stoichiometry N in assay [1] and in assay [2] was 2 in each case.
In the case of `C=CC1=C(C)C(=Cc2[nH]c(C=C3N=C(C=C4NC(=O)C(C)=C4C=C)C(C)=C3CCC(=O)O)c(CCC(=O)O)c2C)NC1=O` [biliverdin IXα], the “HPLC and LC-MS of reaction product” value on Ssr1698 (cHO) [3] was “biliverdin IXα molecule, 11-amino acid peptide and free iron were identified in the reaction product”. The “suppression of c-type heme degradation” value at Ssr1698 (cHO) [4] is “degradation of c-type heme is significantly suppressed after the addition of biliverdin IXα”.
